Data from patent publication US6946133.

T1: HLA class I-A2 molecule (human), P04439
T1 chain: not shown


Legend:
[1] = biological target: T1, HLA class I-A2 molecule (human), P04439; test: T2 cell binding assay, peptide 50 µg/ml, HLA-A2 upregulation read with MAb A2,69 by flow cytometry
[2] = biological target: T1, HLA class I-A2 molecule (human), P04439; test: T2 binding assay, peptide 50 µg/ml for 24 h, anti-HLA-A2 mAb, flow cytometry; cut off for positivity 100

mean channel fluorescent intensity [1] | T2 binding, relative fluorescence (mean intensity) [2] | Binder
224 |  | KLQCVDLHV (modifications not checked) [PSA peptide 146-154]
 | 63.3 | FLTPKKLQCVDLHVISNDVCAQVHPQKVTK (modifications not checked) [prostate specific antigen oligo-epitope peptide (PSA-OP)]
230 | 128 | FLTPKKLQCV (modifications not checked) [PSA peptide 141-150]
